{"source": "paper PMC9881158", "about": "“The DEAD-box protein Dbp6 is an ATPase and RNA annealase interacting with the peptidyl transferase center (PTC) of the ribosome” (Nucleic Acids Research, 2023)", "molecules": {"B1": {"name": "Dbp6 ΔN mutant (lacking the N-terminal D/E-rich sequence, residues 24–128), His6-tagged recombinant (enzyme, S. cerevisiae, UniProt P53734 1-629, looked up)", "chain": "MFASRFDPSQLTAPAASAPEGIVHQLKQIPQPEFVKNPMNLNTNSLQFKSTGWLNTEKIYYDNSLIKPFSDYANELEAKLLQNICKNFSTNTFPIQSIILDSILPVLNFTLNVSKRNFTRRIGDILVNAATGSGKTLAYSIPIVQTLFKRQINRLRCIIIVPTKLLINQVYTTLTKLTQGTSLIVSIAKLENSLKDEHKKLSNLEPDILITTPGRLVDHLNMKSINLKNLKFLIIDEADRLLNQSFQGWCPKLMSHLKTDKLDTLPGNVIKMIFSATLTTNTEKLNGLNLYKPKLFLKQTDKLYQLPNKLNEFNINIPTAKSVYKPLILLYSICQFMAHSPIAAKILIFVKSNESSIRLSKLLQLICESRSQSSVLKNLQNLAVSINSVNSNNSKAENKKIVANFSHHSESAGITILITTDIMSRGIDINDITQVINYDPPMSSQQYVHRVGRTARANELGSAYNLLVGRGERTFFDDLNKDLDRDGKSVQPLELDFTLLESDSELYTSSLESLKNYHNNTAQA", "notes": "made from pET-Dbp6; also called pET-ΔN; source: E. coli Rosetta λDE3, purified (HisTrap FF, Superdex 200)"}, "B2": {"name": "ds38/58 hemi-duplex (dsRNA)", "RNA 1": "GGGAGACCGGAAUUCAUCAUUUCAGUGUAGCGGUUCUGACGUGCAAAUCGAUCGUCGA", "RNA 2": "CAGAACCGCUACACUGAAAUGAUCAAUUCCGGUCUCCC"}, "B3": {"name": "recombinant His6-Dbp6, P53734 M-II: E to A in motif II (DEAD to DAAD) (protein)", "chain": "MFASRFDPSQLTAPAASAPEGIVGTTPPAIVPLKRQATESDNEEYGSHQDSDESSNSSSEEDEDRMQVDYGASEEDSSEVEEEESKPSTHSTVLSRFKQTVSLQERLGASDIAESKEDEGIEDEAASTHQLKQIPQPEFVKNPMNLNTNSLQFKSTGWLNTEKIYYDNSLIKPFSDYANELEAKLLQNICKNFSTNTFPIQSIILDSILPVLNFTLNVSKRNFTRRIGDILVNAATGSGKTLAYSIPIVQTLFKRQINRLRCIIIVPTKLLINQVYTTLTKLTQGTSLIVSIAKLENSLKDEHKKLSNLEPDILITTPGRLVDHLNMKSINLKNLKFLIIDAADRLLNQSFQGWCPKLMSHLKTDKLDTLPGNVIKMIFSATLTTNTEKLNGLNLYKPKLFLKQTDKLYQLPNKLNEFNINIPTAKSVYKPLILLYSICQFMAHSPIAAKILIFVKSNESSIRLSKLLQLICESRSQSSVLKNLQNLAVSINSVNSNNSKAENKKIVANFSHHSESAGITILITTDIMSRGIDINDITQVINYDPPMSSQQYVHRVGRTARANELGSAYNLLVGRGERTFFDDLNKDLDRDGKSVQPLELDFTLLESDSELYTSSLESLKNYHNNTAQA"}, "B4": {"name": "recombinant His6-Dbp6 (enzyme, S. cerevisiae, UniProt P53734 1-629, looked up)", "chain": "B3 chain with A342E", "notes": "DEAD-box protein Dbp6 of yeast (S. cerevisiae), DBP6 ORF cloned downstream of a His tag in modified pET-15b; His6-Dbp6 ca. 73 kDa; SEC fractions also hold some truncated fragments of Dbp6; fraction F17 was used for the in vitro assays; also called WT Dbp6; wild-type Dbp6; source: E. coli Rosetta λDE3, purified (HisTrap FF, Superdex 200); not shown: His6, N-terminal, kept"}, "B5": {"name": "Dbp6 expressed in yeast as HA-Dbp6 and as Dbp6-ZZ (enzyme, S. cerevisiae, UniProt P53734 1-629, looked up)", "chain": "B3 chain with A342E", "notes": "DEAD-box protein Dbp6 of yeast (S. cerevisiae); HA-tagged ORF under the GAL1-10 promoter and wild-type DBP6 cassette in pHA113 between a GAR1 promoter and a ZZ tag; also called ZZ-tagged Dbp6; GAL::HA-DBP6; source: yeast strain expressing HA-Dbp6 as well as ZZ-tagged Dbp6, in extract"}, "B6": {"name": "recombinant His6-Dbp6, P53734 M-I: K to A in motif I (GTGKT) (protein)", "chain": "B3 chain with K240A, A342E"}}, "key": {"[1]": {"molecular_target": "T1, Dbp6 (Saccharomyces cerevisiae, UniProt P53734)", "T1 construct": "full-length ORF, His6 tag (modified pET-15b, pET-Dbp6), kept; E. coli Rosetta λDE3; ca. 73 kDa; size exclusion fraction, mainly monomer / dimer", "T1 sequence (P53734 1-629)": "B3 chain with A342E", "assay": "EMSA, effect on Dbp6 binding to hemi-duplex RNA ds38/[…]", "settings": "0.5-5 mM nucleotide, 0.5 μM protein, 1 nM RNA, MgCl2 2.5 mM, pH 8, 30°C; indirect read-out"}, "[2]": {"molecular_target": "T1, Dbp6", "assay": "ATPase assay, TLC of [α-32P]-ADP", "type": "biochemical", "settings": "100 μM ATP, 0.8 μM protein, 2 μM ss58-mer RNA, MgCl2 2.5 mM, pH 8, 30°C; trace E. coli ATPase not excluded by the authors"}, "[3]": {"molecular_target": "T1, Dbp6", "assay": "RNA strand annealing assay (ss38-mer / ss58-mer), effect of nucleotide", "type": "biochemical", "settings": "5 mM ADP, 0.25 μM protein, MgCl2 2.5 mM, pH 8, 30°C; indirect read-out"}, "[4]": {"molecular_target": "the molecule itself", "assay": "SEC; Superdex 200 gel filtration after HisTrap; GF-ATPase buffer (20 mM Tris–HCl pH 8.0, 100 mM KCl, 10% glycerol, 1 mM DTT, 0.5 mM PMSF); column calibrated with molecular weight standards"}, "[5]": {"molecular_target": "T2, Dbp6 (Saccharomyces cerevisiae, UniProt P53734 1-629)", "T2 sequence": "B3 chain with A342E", "assay": "EMSA; no nucleotide; EMSA: 1 nM 32P-RNA, RB 1x (composition not in the material), RNasin, 15 min at 30 C, native PAGE in TBE; bridging: 0.8 uM Dbp6, RB 1x, 15 min at 30 C", "settings": "protein: recombinant; tags: N-terminal His6; label: 32P"}, "[6]": {"molecular_target": "T2, Dbp6", "assay": "EMSA; high affinity; no nucleotide; EMSA: 1 nM 32P-RNA, RB 1x (composition not in the material), RNasin, 15 min at 30 C, native PAGE in TBE; bridging: 0.8 uM Dbp6, RB 1x, 15 min at 30 C", "settings": "protein: recombinant; tags: N-terminal His6; label: 32P on ss38-mer; 3' overhang 20 nt on strand 1; 38 bp region with one C-C mismatch"}, "[7]": {"molecular_target": "T2, Dbp6", "assay": "EMSA; Dbp6 up to 1.2 uM; EMSA: 1 nM 32P-RNA, RB 1x (composition not in the material), RNasin, 15 min at 30 C, native PAGE in TBE; bridging: 0.8 uM Dbp6, RB 1x, 15 min at 30 C", "settings": "protein: recombinant; tags: N-terminal His6; label: 32P"}, "[8]": {"molecular_target": "T3, Dbp6 M-II mutant (motif II, DEAD to DAAD), His6-tagged recombinant, P53734", "T3 chain": "B3 chain", "assay": "UV cross-linking", "settings": "chain shown with the change, no RNA included, parent: est. 0.51, read off a plot"}, "[9]": {"molecular_target": "the molecule itself", "assay": "cross-linking; purified recombinant Dbp6 (1.5 or 0.8 μM) in RB 1× buffer, 15 min at 20°C, UV 312 nm for 6 min on ice; SDS-PAGE, western blot or silver staining; with or without ATP (1 or 5 μM with labelled ATP; 5 mM) and RNA oligonucleotide"}, "[10]": {"molecular_target": "the molecule itself", "assay": "co-IP; immunoprecipitation of Dbp6-ZZ with IgG-sepharose from extracts of a yeast strain expressing HA-Dbp6 and ZZ-tagged Dbp6, in the presence of RNase; western blot"}, "[11]": {"molecular_target": "T4, Dbp6 M-I mutant (motif I, GTGKT), His6-tagged recombinant, P53734", "T4 chain": "B3 chain with K240A, A342E", "assay": "UV cross-linking", "settings": "chain shown with the change, no RNA included, parent: est. 0.51, read off a plot"}}, "note": "Substitutions are numbered along the chain they refer to.", "data": [{"molecule": "Nc1ncnc2c1ncn2[C@@H]1O[C@H](COP(=O)(O)OP(=O)(O)OP(O)(O)=S)[C@@H](O)[C@H]1O", "note": "[ATPγS]", "values": [{"measurement": "EMSA, effect on Dbp6 binding to hemi-duplex RNA ds38/58", "setting": "[1]", "value": "ATPγS had an even stronger effect on Dbp6 binding to the hemi-duplex than ATP."}]}, {"molecule": "Nc1ncnc2c1ncn2[C@@H]1O[C@H](COP(=O)(O)OP(=O)(O)OP(=O)(O)O)[C@@H](O)[C@H]1O", "note": "[ATP]", "values": [{"measurement": "ATPase assay, TLC of [α-32P]-ADP", "setting": "[2]", "value": "This ATPase activity could be attributed to Dbp6"}]}, {"molecule": "Nc1ncnc2c1ncn2[C@@H]1O[C@H](COP(=O)(O)OP(=O)(O)O)[C@@H](O)[C@H]1O", "note": "[ADP]", "values": [{"measurement": "RNA strand annealing assay (ss38-mer / ss58-mer), effect of nucleotide", "setting": "[3]", "value": "In contrast, ADP addition increased the annealing activity of Dbp6."}]}, {"molecule": "B1", "values": [{"measurement": "binding result", "setting": "[4]", "value": "binds"}]}, {"molecule": "CAGAACCGCUACACUGAAAUGAUCAAUUCCGGUCUCCC (ssRNA)", "note": "[ss38-mer]", "values": [{"measurement": "binding result", "setting": "[5]", "value": "binds"}]}, {"molecule": "B2", "values": [{"measurement": "binding result", "setting": "[6]", "value": "binds"}]}, {"molecule": "GGGAGACCGGAAUUCAUCAUU (ssRNA)", "note": "[ss21-mer]", "values": [{"measurement": "binding result", "setting": "[7]", "value": "no binding"}]}, {"molecule": "B3", "values": [{"measurement": "other: quantity of oligomers with ATP, relative to without ATP (set at 1)", "setting": "[8]", "value": 0.96}]}, {"molecule": "B4", "values": [{"measurement": "stoichiometry N", "setting": "[4]", "value": 2}, {"measurement": "fold reduction of oligomerization with 5 mM ATP against no ATP", "setting": "[9]", "value": "~2", "unit": "fold"}]}, {"molecule": "B5", "values": [{"measurement": "fold enrichment over background", "setting": "[10]", "value": "~2", "unit": "fold"}]}, {"molecule": "B6", "values": [{"measurement": "other: quantity of oligomers with ATP, relative to without ATP (set at 1)", "setting": "[11]", "value": 0.97}]}]}
